Patent US20130115279A1 (IMMUNOCELLULAR THERAPEUTICS, published 2013)

Columns and labels:
[1] = biological target: T1, HLA-A*0101 (human); experiment: REVEAL off rate analysis of peptide-MHC pentamers, 37 C, 0, 2 and 24 h
T1 construct: Class I MHC molecule of the ProImmune REVEAL assay; also called HLA-A1
Method: (§1) The pentamers were subjected to incubation and analysis at 37° C. to determine the stability of peptide-MHC complexes. Off-rates of the complexes were measured by REVEAL™ off rate analysis (ProImmune Ltd., Oxford, UK) after 0, 2, and 24 hours of incubation at 37° C.

[2] = biological target: T1, HLA-A*0101; experiment: REVEAL MHC binding assay, incorporation into MHC relative to positive control peptide
[3] = biological target: T2, HLA-A*0301 (human); experiment: as above
T2 construct: Class I MHC molecule of the ProImmune REVEAL assay; also called HLA-A3

[4] = biological target: T2, HLA-A*0301; experiment: REVEAL off rate analysis of peptide-MHC pentamers, 37 C, 0, 2 and 24 h; * 24 h interval too short for an accurate value
Method: as §1

[5] = biological target: T2, HLA-A*0301; experiment: REVEAL off rate analysis of peptide-MHC pentamers, 37 C, 0, 2 and 24 h
Method: as §1

[6] = biological target: T3, HLA-A*0201 (human); experiment: as above
T3 construct: Class I MHC molecule of the ProImmune REVEAL assay; also called HLA-A2
Method: as §1

[7] = biological target: T3, HLA-A*0201; experiment: REVEAL MHC binding assay, incorporation into MHC relative to positive control peptide
[8] = biological target: T3, HLA-A*0201; experiment: REVEAL off rate analysis of peptide-MHC pentamers, 37 C, 0, 2 and 24 h; * 24 h interval too short for an accurate value
Method: as §1

B1: CD133 peptide AVDVFLCSY (SEQ ID NO:1) (peptide)
peptide: AVDVFLCSY
notes: synthetic nine-residue peptide of human CD133 (ProImmune)
t1/2 [1]: 20.7 h
% Positive Control [2]: 58.6%

B2: CD133 peptide SSELESLKV (SEQ ID NO:2) (peptide)
peptide: SSELESLKV
notes: as for B1
t1/2 [1]: 0.46 h
% Positive Control [2]: 74.1%

B3: CD133 peptide IIDPLNLFW (SEQ ID NO:3) (peptide)
peptide: IIDPLNLFW
notes: as for B1
t1/2 [1]: 0.35 h
% Positive Control [2]: 91.5%

B4: CD133 peptide KLFNKSKMK (SEQ ID NO:4) (peptide)
peptide: KLFNKSKMK
notes: as for B1
% Positive Control [3]: 80.8%
t1/2 [4]: 27.8 h

B5: CD133 peptide ILAQYNTTK (SEQ ID NO:5) (peptide)
peptide: ILAQYNTTK
notes: as for B1
t1/2 [5]: 2.07 h
% Positive Control [3]: 46.6%

B6: CD133 peptide YLSGKLFNK (SEQ ID NO:6) (peptide)
peptide: YLSGKLFNK
notes: as for B1
% Positive Control [3]: 46.9%

B7: CD133 peptide RTRIKRSRK (SEQ ID NO:7) (peptide)
peptide: RTRIKRSRK
notes: as for B1
t1/2 [5]: 23.9 h
% Positive Control [3]: 87.3%

B8: CD133 peptide LSSSLTSVK (SEQ ID NO:8) (peptide)
peptide: LSSSLTSVK
notes: as for B1
t1/2 [5]: 1.8 h
% Positive Control [3]: 52.5%

B9: CD133 peptide NLFWFGIGK (SEQ ID NO:9) (peptide)
peptide: NLFWFGIGK
notes: as for B1
t1/2 [5]: 3.35 h
% Positive Control [3]: 53.1%

B10: CD133 peptide VLDEIKSMA (SEQ ID NO:10) (peptide)
peptide: VLDEIKSMA
notes: as for B1
t1/2 [6]: 1.43 h
% Positive Control [7]: 309%

B11: CD133 peptide YLQWIEFSI (SEQ ID NO:11) (peptide)
peptide: YLQWIEFSI
notes: as for B1
% Positive Control [7]: 113%
t1/2 [8]: 83 h

B12: CD133 peptide NLLSFAYDL (SEQ ID NO:12) (peptide)
peptide: NLLSFAYDL
notes: as for B1
t1/2 [6]: 1.83 h
% Positive Control [7]: 180%

B13: CD133 peptide FITNNTSSV (SEQ ID NO:13) (peptide)
peptide: FITNNTSSV
notes: as for B1
t1/2 [6]: 20 h
% Positive Control [7]: 107%

B14: CD133 peptide RVLDTPYLL (SEQ ID NO:14) (peptide)
peptide: RVLDTPYLL
notes: as for B1
t1/2 [6]: 3.51 h
% Positive Control [7]: 165%

B15: CD133 peptide SLDFAQNFI (SEQ ID NO:15) (peptide)
peptide: SLDFAQNFI
notes: as for B1
t1/2 [6]: 15.5 h
% Positive Control [7]: 115%

B16: CD133 peptide ELVHIFLYV (SEQ ID NO:16) (peptide)
peptide: ELVHIFLYV
notes: as for B1
t1/2 [6]: 6.86 h
% Positive Control [7]: 156%

B17: CD133 peptide LVLGSLLLL (SEQ ID NO:17) (peptide)
peptide: LVLGSLLLL
notes: as for B1
t1/2 [6]: 8.25 h
% Positive Control [7]: 102%

B18: CD133 peptide SQLNSNPEL (SEQ ID NO:18) (peptide)
peptide: SQLNSNPEL
notes: as for B1
t1/2 [6]: 2.37 h
% Positive Control [7]: 123%

B19: CD133 peptide ILCCVLGLL (SEQ ID NO:19) (peptide)
peptide: ILCCVLGLL
notes: as for B1
t1/2 [6]: 5.63 h
% Positive Control [7]: 163%

B20: CD133 peptide GLLERVTRI (SEQ ID NO:20) (peptide)
peptide: GLLERVTRI
notes: as for B1
% Positive Control [7]: 131%
t1/2 [8]: 74.3 h

B21: CD133 peptide FLLPALIFA (SEQ ID NO:21) (peptide)
peptide: FLLPALIFA
notes: as for B1
% Positive Control [7]: 93.6%
t1/2 [8]: > 120 h
